The target in assay [1] is T1, Recombinant human sclerostin (human, UniProt Q9BQB4 24-213).
T1 construct: Whole entry as named; Secreted recombinant protein purified from FreeStyle293-F conditioned medium; also called human-SOST; Human SOST
T1 sequence: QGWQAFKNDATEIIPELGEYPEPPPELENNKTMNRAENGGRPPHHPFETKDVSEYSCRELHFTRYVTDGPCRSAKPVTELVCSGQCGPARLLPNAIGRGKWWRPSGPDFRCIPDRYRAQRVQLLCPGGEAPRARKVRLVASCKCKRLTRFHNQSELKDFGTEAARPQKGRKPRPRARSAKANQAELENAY
The assay is described as follows: SPR; captured antibody (SG1/SK1 constant regions), recombinant human SOST as analyte; response normalised by the capture level of the antibody [panel mabAL].

The target in assay [2] is T1, Recombinant human sclerostin. The assay is described as follows: SPR (Biacore), dissociation at pH 7.4. A general note: Surface plasmon resonance follows binding to a sensor surface in real time, without labels.
Procedure: (§1) The affinity of anti-sclerostin variants binding to human, cynomolgus monkey (cyno), rat, or mouse sclerostin at pH 7.4 and pH 5.8 were determined at 37 degrees C. using Biacore T200 instrument (GE Healthcare). Anti-human Fc (GE Healthcare) was immobilized onto all flow cells of a CM4 sensor chip using amine coupling kit (GE Healthcare). All antibodies and analytes were prepared in ACES pH7.4 or pH 5.8 buffer containing 20 mM ACES, 150 mM NaCl, 1.2 mM CaCl₂, 0.05% Tween 20, 0.005% NaN₃. Each antibody was captured onto the sensor surface by anti-human Fc. […] Sensor surface was regenerated each cycle with 3M MgCl₂.
Assay [3] has the same target. The experiment in a line: SPR; captured antibody (SG1/SK1 constant regions), recombinant human SOST as analyte; response normalised by the capture level of the antibody [panel mabBL].
Assay [4] deals with T2, Recombinant mouse sclerostin (mouse, UniProt Q99P68 24-211).
T2 construct: Whole entry as named; also called mouse-SOST
T2 sequence: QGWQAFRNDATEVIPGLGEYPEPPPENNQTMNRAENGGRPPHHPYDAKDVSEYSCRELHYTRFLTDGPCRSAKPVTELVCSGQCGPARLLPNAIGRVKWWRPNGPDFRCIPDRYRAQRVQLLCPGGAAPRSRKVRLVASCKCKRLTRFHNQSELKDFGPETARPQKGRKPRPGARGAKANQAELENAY
The experiment in a line: SPR (Biacore T200), 37 C, antibody captured by anti-human Fc, sclerostin as analyte, pH 5.8; pH 5.8.
Procedure: as §1

The target of assay [5] is T1, Recombinant human sclerostin. The assay is described as follows: SPR (Biacore T200), 37 C, antibody captured by anti-human Fc, sclerostin as analyte, pH 7.4.
Procedure: as §1
The target of assay [6] is T2, Recombinant mouse sclerostin. The experiment in a line: SPR (Biacore T200), 37 C, antibody captured by anti-human Fc, sclerostin as analyte, pH 7.4; pH 7.4.
Procedure: as §1
Assay [7] addresses T3, Recombinant cynomolgus monkey sclerostin (cynomolgus monkey, UniProt Q9BG78 24-213 (Chlorocebus aethiops entry)).
T3 construct: Whole entry as named; expressed and purified as the human counterpart; also called cyno-SOST; cyno SOST
T3 chain: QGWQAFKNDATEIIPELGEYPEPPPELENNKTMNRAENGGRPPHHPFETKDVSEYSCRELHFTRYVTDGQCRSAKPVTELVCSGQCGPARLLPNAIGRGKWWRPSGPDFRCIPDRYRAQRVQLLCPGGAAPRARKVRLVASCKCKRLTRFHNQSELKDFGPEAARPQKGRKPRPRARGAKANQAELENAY
The assay is described as follows: SPR (Biacore T200), 37 C, antibody captured by anti-human Fc, sclerostin as analyte, pH 5.8.
Procedure: as §1

The target in assay [8] is T1, Recombinant human sclerostin. The assay is described as follows: SPR (Biacore T200), 37 C, dissociation at pH 5.8 of complex formed at pH 7.4.
Procedure: as §1
(§2) The pH dependent interaction assessment was determined by a modified Biacore assay. Briefly, an additional dissociation phase at pH5.8 was integrated into the Biacore assay immediately after dissociation phase at pH7.4. This is to assess the pH-dependent dissociation between antibody and antigen from the complexes formed at pH7.4. The dissociation rate at pH5.8 buffer was determined by processing and fitting data using Scrubber 2.0 (BioLogic Software) curve fitting software.
In assay [9] the target is T3, Recombinant cynomolgus monkey sclerostin. Described as above.
Procedure: as §1, §2
The target is the same in assay [10]. The experiment in a line: SPR (Biacore), dissociation at pH 7.4.
Procedure: as §1
Assay [11] concerns the target T4, Recombinant rat sclerostin (rat, UniProt Q99P67 29-213).
T4 construct: Whole entry as named; also called rat-SOST
T4 sequence: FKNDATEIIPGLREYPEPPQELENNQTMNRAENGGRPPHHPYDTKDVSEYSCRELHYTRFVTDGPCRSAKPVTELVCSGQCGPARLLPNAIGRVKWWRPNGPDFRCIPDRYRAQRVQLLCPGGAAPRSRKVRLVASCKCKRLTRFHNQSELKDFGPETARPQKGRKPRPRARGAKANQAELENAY
The assay is described as follows: SPR (Biacore T200), 37 C, antibody captured by anti-human Fc, sclerostin as analyte, pH 5.8.
Procedure: as §1

In assay [12] the target is T2, Recombinant mouse sclerostin. The assay is described as follows: SPR (Biacore T200), 37 C, dissociation at pH 5.8 of complex formed at pH 7.4.
Procedure: as §1, §2
The target of assay [13] is T4, Recombinant rat sclerostin. Described as above.
Procedure: as §1, §2
In assay [14] the target is T3, Recombinant cynomolgus monkey sclerostin. The assay is described as follows: SPR (Biacore T200), 37 C, antibody captured by anti-human Fc, sclerostin as analyte, pH 7.4.
Procedure: as §1
The target of assay [15] is T1, Recombinant human sclerostin. The experiment in a line: SPR (Biacore T200), 37 C, antibody captured by anti-human Fc, sclerostin as analyte, pH 5.8.
Procedure: as §1
The target of assay [16] is T2, Recombinant mouse sclerostin. The experiment in a line: cell-based or functional assay.
Assay [17] addresses T5, Mouse Fc gamma RIIB (mouse, UniProt P08101 30-210, limits assumed).
T5 sequence (looked up): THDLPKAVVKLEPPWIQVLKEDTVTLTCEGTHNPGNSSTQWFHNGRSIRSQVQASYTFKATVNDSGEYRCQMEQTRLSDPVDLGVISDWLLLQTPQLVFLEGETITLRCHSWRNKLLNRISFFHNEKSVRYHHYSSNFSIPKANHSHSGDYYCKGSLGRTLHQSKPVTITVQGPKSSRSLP
The assay is described as follows: SPR (Biacore T200), pH 7.4, 25 degrees C; mouse Fc gamma RIIB captured by anti-Histidine antibody; antibody injected at 100 nM alone or as 1:1 immune complex with human sclerostin.
Procedure: The binding of anti-sclerostin antibodies/sclerostin immune complex towards mouse Fc gamma RIIB at pH 7.4 were determined at 25 degrees C. using Biacore T200 instrument (GE Healthcare). All antibodies and mouse Fc gamma RIIB were prepared in ACES pH 7.4 containing 20 mM ACES, 250 mM NaCl, 1.2 mM CaCl₂, 0.05% Tween 20, 1 mg/ml BSA, 1 mg/ml carboxymethyl dextran (CMD), 0.005% NaN₃. Anti-Histidine antibody (GE Healthcare) was immobilized onto all flow cells of a CM4 sensor chip using amine coupling kit (GE Healthcare). Mouse Fc gamma RIIB was captured on flow cell 2 by anti-Histidine antibody with flow cell 1 as reference flow cell. Mouse Fc gamma RIIB capture levels were aimed at 400 resonance unit (RU). All antibodies were injected at 100 nM over all flow cells. Immune complexes were prepared by mixing 1:1 molar ratio of antibody and human sclerostin and incubated at room temperature for one hour. Sensor surface was regenerated each cycle with 10 mM Glycine-HCl, pH1.5.

B1: mabB heavy chain combined with the mabA light chain (mabAL) (antibody, human IgG1, kappa, V domains shown)
VH: QVQLVQSGAEVKKPGASVKVSCKVSGFPIKDTFQHWVRQAPGKGLEWMGWSDPEIGDTEYASKFQGRVTMTEDTSTDTAYMELSSLRSEDTAVYYCATGDTTYKFDFWGQGTTVTVSS
VL: DIQMTQSPSSLSASVGDRVTITCRASQDISNYLNWYQQKPGKAPKLLIYYTSRLLSGVPSRFSGSGSGTDFTLTISSLQPEDFATYYCQQGDTLPYTFGGGTKVEIKR
notes: also called mabAL with the mabB heavy chain; Light chain A with the mabB heavy chain
Take B1: the binding result in assay [1] is reported as “no binding”.

B2: bsH638/abL152 (antibody, V domains shown)
VH: QVQLVQSGAEVKKPGASVKVSCKVSGYTLTHTFMHWVRQAPGKGLEWMGWSDPEIGDHEYASKFQGRVTMTEDTSTDTAYMELSSLRSEDTAVYYCATGDTTYKFDYWGQGTLVTVSS
VL: DIQMTQSPSSLSASVGDRVTITCRASEGIHDALAWYQQKPGKAPKLLIYWASTLESGVPSRFSGSGSGTDFTLTISSLQPEDFATYYCQQGDTLPYTFGGGTKVEIK
notes: Homodimeric antibody
Regarding B2, the koff (usually a measure of how fast the partners let go of each other) in assay [2] was found to be 0.0093 s⁻¹.

B3: mabA heavy chain combined with the mabB light chain (mabBL) (antibody, human IgG1, kappa, V domains shown)
VH: EVQLVQSGAEVKKPGASVKVSCKASGYTFTDYNMHWVRQAPGQGLEWMGEINPNSGGAGYNQKFKGRVTMTTDTSTSTAYMELRSLRSDDTAVYYCARLGYDDIYDDWYFDVWGQGTTVTVSS
VL: DIQMTQSPSSLSASVGDRVTITCKASQDVHTAVAWYQQKPGKAPKLLIYWASTRWTGVPSRFSGSGSGTDFTLTISSLQPEDFATYYCQQYSDYPWTFGGGTKVEIKR
notes: also called mabBL with the mabA heavy chain; Light chain B with the mabA heavy chain
Turning to B3, the binding result in assay [3] is on record as “no binding”.

B4: mabA (antibody, V domains shown)
VH: EVQLVQSGAEVKKPGASVKVSCKASGYTFTDYNMHWVRQAPGQGLEWMGEINPNSGGAGYNQKFKGRVTMTTDTSTSTAYMELRSLRSDDTAVYYCARLGYDDIYDDWYFDVWGQGTTVTVSS
VL: DIQMTQSPSSLSASVGDRVTITCRASQDISNYLNWYQQKPGKAPKLLIYYTSRLLSGVPSRFSGSGSGTDFTLTISSLQPEDFATYYCQQGDTLPYTFGGGTKVEIK
For B4, the Kd (in general, the free concentration of one partner at which half of the binding sites on the other are occupied at equilibrium, for simple one-to-one binding) in [4] was < 0.01 nM; in assay [5], 0.08 nM; in assay [6], < 0.01 nM; in assay [7], 1.4 nM. Besides, the koff in assay [8] is 0.00631 s⁻¹; in [9] it was 0.00697 s⁻¹.

B5: amH852/abL152 (antibody, V domains shown)
VH: EVQLVQSGAEVKKPGASVKVSCKASGYTFTDYNMHWVRQAPGKGLEWMGEIMPHSGRYGLKQKFKGRVTMTTDTSTSTAYMELRSLRSDDTAVYYCARLEYSEIYDDWYFDVWGQGTTVTVSS
VL: DIQMTQSPSSLSASVGDRVTITCRASEGIHDALAWYQQKPGKAPKLLIYWASTLESGVPSRFSGSGSGTDFTLTISSLQPEDFATYYCQQGDTLPYTFGGGTKVEIK
notes: Homodimeric antibody
In the case of B5, the koff in assay [10] is 0.0019 s⁻¹.

B6: mabA_pH1 (antibody, V domains shown)
VH: EVQLVQSGAEVKKPGASVKVSCKASGYTFTDYNMHWVRQAPGQGLEWMGEINPNSGHAGYNQKFKGRVTMTTDTSTSTAYMELRSLRSDDTAVYYCARLHYDDIYDDWYFDVWGQGTTVTVSS
VL: DIQMTQSPSSLSASVGDRVTITCRASHDISNYLNWYQQKPGKAPKLLIYYTSRLLSGVPSRFSGSGSGTDFTLTISSLQPEDFATYYCQQGDTLPYTFGGGTKVEIK
Turning to B6, the Kd in assay [11] came out at 4.2 nM. The koff in assay [12] is 0.0107 s⁻¹; in assay [13] it was 0.0059 s⁻¹.

B7: mabA_NpH2 (antibody, V domains shown)
VH: EVQLVQSGAEVKKPGASVKVSCKASGYTFTDYNMHWVRQAPGQGLEWMGEINPNSGGAGYNQKFKGRVTMTTDTSTSTAYMELRSLRSDDTAVYYCARLGYDDIYDDWYFDVWGQGTTVTVSS
VL: DIQMTQSPSSLSASVGDRVTITCRASQDISNYLNWYQQKPGKAPKLLIYHTSRLLSGVPSRFSGSGSGTDFTLTISSLQPEDFATYYCQQGDTLPYTFGGGTKVEIK
Regarding B7, the Kd was 0.28 nM in assay [14] and 0.69 nM in [15]. Also, the koff was found to be 0.0023 s⁻¹ in assay [8] and 0.0018 s⁻¹ in [9].

B8: mabB//mabA-BS01 (bispecific antibody, human IgG1, kappa)
heavy 1: QVQLVQSGAEVKKPGASVKVSCKVSGFPIKDTFQHWVRQAPGKGLEWMGWSDPEIGDTEYASKFQGRVTMTEDTSTDTAYMELSSLRSEDTAVYYCATGDTTYKFDFWGQGTTVTVSSASTKGPSVFPLAPSSRSTSESTAALGCLVKDYFPEPVTVSWNSGALTSGVHTFPAVLQSSGLYSLSSVVTVPSSSLGTKTYTCNVDHKPSNTKVDKRVEPKSCDKTHTCPPCPAPELLGGPSVFLFPPKPKDTLMISRTPEVTCVVVDVSQEDPEVQFNWYVDGVEVHNAKTKPREEQFNSTYRVVSVLTVLHQDWLNGKEYKCKVSNKGLPSSIEKTISKAKGQPREPQVYTLPPSREEMTKNQVSLTCLVKGFYPSDIAVEWESNGQPENNYKTTPPYLDSDGSFFLYSKLTVDKSRWQQGNVFSCSVMHEALHNHYTQESLSLSP
light 1: DIQMTQSPSSLSASVGDRVTITCKASQDVHTAVAWYQQKPGKAPKLLIYWASTRWTGVPSRFSGSGSGTDFTLTISSLQPEDFATYYCQQYSDYPWTFGGGTKVEIKRTVAAPSVFIFPPSDEQLKSGTASVVCLLNNFYPREAKVQWKVDNALQSGNSQESVTEQDSKDSTYSLSSTLTLSKADYEKHKVYACEVTHQGLSSPVTKSFNRGEC
heavy 2: EVQLVQSGAEVKKPGASVKVSCKASGYTFTDYNMHWVRQAPGQGLEWMGEINPNSGGAGYNQKFKGRVTMTTDTSTSTAYMELRSLRSDDTAVYYCARLGYDDIYDDWYFDVWGQGTTVTVSSASTKGPSVFPLAPSSRSTSESTAALGCLVKDYFPEPVTVSWNSGALTSGVHTFPAVLQSSGLYSLSSVVTVPSSSLGTKTYTCNVDHKPSNTKVDKRVEPKSCDKTHTCPPCPAPELLGGPSVFLFPPKPKDTLMISRTPEVTCVVVDVSQEDPEVQFNWYVDGVEVHNAKTKPREEQFNSTYRVVSVLTVLHQDWLNGKEYKCKVSNKGLPSSIEKTISKAKGQPREPQVYTLPPSRKEMTKNQVSLTCLVKGFYPSDIAVEWESNGQPENNYKTTPPYLDSDGSFFLYSKLTVDKSRWQQGNVFSCSVMHEALHNHYTQKSLSLSP
light 2: not shown
B8: the “IC50 (read off the curve); Wnt1-induced TCF/LEF luciferase reporter in HEK293T cells, % Inhibition of mouse SOST” value in assay [16] was ~7 µg/mL. The binding result in assay [17] is given as “binds”.

These data come from US20190352387A1 (Chugai, published 2019).
